Data published in PMC9927934.

Molecular target: L973F mutant human insulin receptor B isoform, FLAG tagged (human)

Shc phosphorylation in L973F-IR cells against WT-IR cells, immunoblot, 1 to 100 nM insulin for 15 minutes (printed together with Gab-1 and ERK phosphorylation): 2 to 4 fold
B1: Shc (natural protein)
chain: MDLLPPKPKYNPLRNESLSSLEEGASGSTPPEELPSPSASSLGPILPPLPGDDSPTTLCSFFPRMSNLKLANPAGGRLGPKGEPGKAAEDGEGSAGAALRDSGLLPLLQDMNKLSGGGGRRTRVEGGQLGGEEWTRHGSFVNKPTRGWLHPNDKVMGPGVSYLVRYMGCVEVLQSMRALDFNTRTQVTREAISLVCEAVPGAKGATRRRKPCSRPLSSILGRSNLKFAGMPITLTVSTSSLNLMAADCKQIIANHHMQSISFASGGDPDTAEYVAYVAKDPVNQRACHILECPEGLAQDVISTIGQAFELRFKQYLRNPPKLVTPHDRMAGFDGSAWDEEEEEPPDHQYYNDFPGKEPPLGGVVDMRLREGAARPTLPSAQMSSHLGATLPIGQHAAGDHEVRKQMLPPPPCPGRELFDDPSYVNIQNLDKARQAGGGAGPPNPSLNGSAPRDLFDMKPFEDALRVPPPPQSMSMAEQLQGEPWFHGKLSRREAEALLQLNGDFLVRESTTTPGQYVLTGLQSGQPKHLLLVDPEGVVRTKDHRFESVSHLISYHMDNHLPIISAGSELCLQQPVDRKV
